Test results taken from patent publication US20260001935.

System: aflibercept
Sequence (chain, as listed by the source): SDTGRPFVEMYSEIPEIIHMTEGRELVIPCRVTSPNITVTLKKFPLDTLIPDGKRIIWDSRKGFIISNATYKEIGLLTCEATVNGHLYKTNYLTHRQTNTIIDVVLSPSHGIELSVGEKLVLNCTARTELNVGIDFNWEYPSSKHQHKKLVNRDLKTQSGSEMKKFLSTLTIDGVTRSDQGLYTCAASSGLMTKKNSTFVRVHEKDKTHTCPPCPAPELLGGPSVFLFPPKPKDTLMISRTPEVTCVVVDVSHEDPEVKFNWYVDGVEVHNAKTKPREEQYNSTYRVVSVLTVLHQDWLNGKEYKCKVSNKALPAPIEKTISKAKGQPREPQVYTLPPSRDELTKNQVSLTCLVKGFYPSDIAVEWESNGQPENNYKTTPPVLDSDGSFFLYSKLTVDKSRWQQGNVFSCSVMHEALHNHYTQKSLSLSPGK

Sequence of cathepsin D (Chinese hamster ovary host cell protein; recombinant CHO Cathepsin D with mmh tag) (chain, as listed by the source): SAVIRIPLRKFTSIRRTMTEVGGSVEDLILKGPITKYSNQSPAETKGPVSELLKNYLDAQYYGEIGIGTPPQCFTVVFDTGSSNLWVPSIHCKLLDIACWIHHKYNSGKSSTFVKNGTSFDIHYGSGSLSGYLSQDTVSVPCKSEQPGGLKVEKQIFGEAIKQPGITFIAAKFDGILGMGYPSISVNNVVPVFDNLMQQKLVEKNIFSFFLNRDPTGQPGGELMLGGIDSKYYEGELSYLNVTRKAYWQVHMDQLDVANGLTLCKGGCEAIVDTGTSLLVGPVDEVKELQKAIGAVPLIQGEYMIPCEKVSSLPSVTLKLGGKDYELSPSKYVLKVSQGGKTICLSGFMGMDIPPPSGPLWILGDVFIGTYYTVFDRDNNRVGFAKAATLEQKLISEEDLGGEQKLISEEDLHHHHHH

For “cathepsin D (Chinese hamster ovary host cell protein; recombinant CHO Cathepsin D with mmh tag)”, the “NR-1 band formation, and Y/L cleavage” value was “the results demonstrated a correlation between spiked-in cathepsin D and NR-1 band formation, and Y/L cleavage”.
